Reference: IntAct's records for PubMed 17254968

B1: Cellular tumor antigen p53 (Mus musculus), P02340 (parent)
chain: MTAMEESQSDISLELPLSQETFSGLWKLLPPEDILPSPHCMDDLLLPQDVEEFFEGPSEALRVSGAPAAQDPVTETPGPVAPAPATPWPLSSFVPSQKTYQGNYGFHLGFLQSGTAKSVMCTYSPPLNKLFCQLAKTCPVQLWVSATPPAGSRVRAMAIYKKSQHMTEVVRRCPHHERCSDGDGLAPPQHLIRVEGNLYPEYLEDRQTFRHSVVVPYEPPEAGSEYTTIHYKYMCNSSCMGGMNRRPILTIITLEDSSGNLLGRDSFEVRVCACPGRDRRTEEENFRKKEVLCPELPPGSAKRALPTCTSASPPQKKKPLDGEYFTLKIRGRKRFEMFRELNEALELKDAHATEESGDSRAHSSYLKTKKGQSTSRHKKTMVKKVGPDSD

Variants of: B1
Conditions: with mapk5_mouse Mapkapk5, O54992
Chain of mapk5_mouse Mapkapk5, O54992 (O54992 whole entry): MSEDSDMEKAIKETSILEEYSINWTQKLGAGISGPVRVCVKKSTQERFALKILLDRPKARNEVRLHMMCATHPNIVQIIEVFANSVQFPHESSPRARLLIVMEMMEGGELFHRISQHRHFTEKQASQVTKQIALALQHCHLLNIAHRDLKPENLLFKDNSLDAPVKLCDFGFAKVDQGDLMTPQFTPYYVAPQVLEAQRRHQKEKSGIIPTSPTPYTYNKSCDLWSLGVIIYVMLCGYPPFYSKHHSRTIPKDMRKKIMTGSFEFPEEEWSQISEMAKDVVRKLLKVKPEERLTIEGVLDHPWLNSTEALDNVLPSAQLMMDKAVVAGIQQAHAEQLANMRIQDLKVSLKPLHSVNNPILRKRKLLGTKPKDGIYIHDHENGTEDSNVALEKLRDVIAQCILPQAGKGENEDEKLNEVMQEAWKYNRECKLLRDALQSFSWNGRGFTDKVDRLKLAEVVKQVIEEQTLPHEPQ

Row | effect of a mutation on the interaction | Variant
1 | disrupting interaction | S37D
